Assays:
[1] = biological target: N-methyl-D-aspartate receptor (NMDAR) of C44 murine erythroleukaemia (MEL) cell membranes (mouse (endogenous in C44 MEL cells)) (UniProt P35438)
RAGE (Homo sapiens) = RAGE (Homo sapiens) (UniProt Q15109); conditions: cited from earlier work
Chain of UniProt Q15109 (Q15109 23-404): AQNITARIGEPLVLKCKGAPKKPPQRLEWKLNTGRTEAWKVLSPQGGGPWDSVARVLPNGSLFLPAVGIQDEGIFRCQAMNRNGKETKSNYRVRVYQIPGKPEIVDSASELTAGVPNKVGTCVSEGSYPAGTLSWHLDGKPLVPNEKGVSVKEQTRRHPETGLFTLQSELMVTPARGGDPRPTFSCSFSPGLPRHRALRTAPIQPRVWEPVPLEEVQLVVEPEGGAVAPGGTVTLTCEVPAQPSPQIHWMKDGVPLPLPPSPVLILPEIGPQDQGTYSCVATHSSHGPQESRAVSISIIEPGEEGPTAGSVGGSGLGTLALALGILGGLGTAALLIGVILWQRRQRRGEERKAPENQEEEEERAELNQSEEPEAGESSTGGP

Chain of HMGB1 (P09429 whole entry): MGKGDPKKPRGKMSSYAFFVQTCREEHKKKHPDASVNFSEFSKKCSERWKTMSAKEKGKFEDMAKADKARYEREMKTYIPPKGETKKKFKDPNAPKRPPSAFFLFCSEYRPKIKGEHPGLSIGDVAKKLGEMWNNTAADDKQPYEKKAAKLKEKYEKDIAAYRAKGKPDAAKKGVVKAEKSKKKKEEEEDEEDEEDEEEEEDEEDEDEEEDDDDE

| Substance | percent of differentiated (benzidine-positive) MEL cells after 24 h with HMBA and 250 pM HMGB1 (6% with HMBA alone; the increase abolished by MK-801 and antagonized by CGS 19755) [1] [%] | Kd (RAGE (Homo sapiens)) [nM] |
| --- | --- | --- |
| high mobility group box 1 (HMGB1) protein, eukaryotic recombinant (from UniProt P63159 1-215) (natural protein) | 12 | – |
| HMGB1 (from UniProt P09429) | – | 10 |

— PMC3432114
